The source of these data is patent US20230277625A1 (SIMCHA IL 18, published 2023).

T1: IL-18 receptor (IL-18Rα / IL-18Rβ heterodimer) on HEK-Blue IL-18 reporter cells (UniProt Q13478 19-541; O95256 20-599, limits assumed)
T1 sequence (looked up) 1: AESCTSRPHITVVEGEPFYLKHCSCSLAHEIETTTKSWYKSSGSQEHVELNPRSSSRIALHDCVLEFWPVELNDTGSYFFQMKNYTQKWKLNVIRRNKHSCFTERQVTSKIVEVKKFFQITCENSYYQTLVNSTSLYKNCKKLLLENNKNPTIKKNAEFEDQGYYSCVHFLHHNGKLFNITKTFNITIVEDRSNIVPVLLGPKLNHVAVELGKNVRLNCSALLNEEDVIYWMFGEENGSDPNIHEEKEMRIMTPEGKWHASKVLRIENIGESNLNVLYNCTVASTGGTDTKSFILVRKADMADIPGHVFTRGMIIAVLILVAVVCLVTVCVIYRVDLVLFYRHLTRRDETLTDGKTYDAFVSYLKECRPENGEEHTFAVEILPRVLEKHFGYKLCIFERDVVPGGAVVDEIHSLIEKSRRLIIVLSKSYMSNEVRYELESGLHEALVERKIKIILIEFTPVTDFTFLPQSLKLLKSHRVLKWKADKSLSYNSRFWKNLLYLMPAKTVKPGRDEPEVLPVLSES
T1 sequence (looked up) 2: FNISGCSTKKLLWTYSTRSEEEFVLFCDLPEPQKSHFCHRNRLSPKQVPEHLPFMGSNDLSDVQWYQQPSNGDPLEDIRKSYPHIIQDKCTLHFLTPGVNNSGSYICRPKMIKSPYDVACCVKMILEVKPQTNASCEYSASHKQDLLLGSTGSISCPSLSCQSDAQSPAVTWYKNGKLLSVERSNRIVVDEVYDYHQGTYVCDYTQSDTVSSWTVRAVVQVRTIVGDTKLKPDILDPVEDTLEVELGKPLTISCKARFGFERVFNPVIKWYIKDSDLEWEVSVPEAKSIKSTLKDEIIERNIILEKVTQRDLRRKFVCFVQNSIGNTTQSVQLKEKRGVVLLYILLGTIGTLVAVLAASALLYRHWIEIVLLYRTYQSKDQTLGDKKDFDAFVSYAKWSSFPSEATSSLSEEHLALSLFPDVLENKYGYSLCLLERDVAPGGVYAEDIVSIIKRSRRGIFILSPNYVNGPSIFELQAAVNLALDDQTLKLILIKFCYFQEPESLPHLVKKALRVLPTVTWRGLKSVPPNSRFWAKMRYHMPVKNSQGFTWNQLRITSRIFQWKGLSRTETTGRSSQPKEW

T2: Human IL-18Rα ectodomain (amino acids 19-329), biotinylated (human, UniProt Q13478 19-329, biotin on the AviTag (BirA ligase))
T2 construct: range 19-329; Secreted from insect cells (gp67 signal peptide removed); also called hIL-18Rα; hIL18Rα
T2 sequence: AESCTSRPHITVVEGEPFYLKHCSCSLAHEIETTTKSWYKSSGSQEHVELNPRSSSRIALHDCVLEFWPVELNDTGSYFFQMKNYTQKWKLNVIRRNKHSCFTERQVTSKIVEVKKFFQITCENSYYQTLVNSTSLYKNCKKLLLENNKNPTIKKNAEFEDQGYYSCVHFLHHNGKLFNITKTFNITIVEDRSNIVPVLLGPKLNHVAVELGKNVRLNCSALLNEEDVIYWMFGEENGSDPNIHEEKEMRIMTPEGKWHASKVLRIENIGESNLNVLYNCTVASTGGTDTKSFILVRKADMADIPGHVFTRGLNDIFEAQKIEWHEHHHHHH

T3: Cynomolgus monkey IL-18Rα, biotinylated (cynomolgus monkey, UniProt A0A2K5V3J9 19-328, biotinylated)
T3 sequence: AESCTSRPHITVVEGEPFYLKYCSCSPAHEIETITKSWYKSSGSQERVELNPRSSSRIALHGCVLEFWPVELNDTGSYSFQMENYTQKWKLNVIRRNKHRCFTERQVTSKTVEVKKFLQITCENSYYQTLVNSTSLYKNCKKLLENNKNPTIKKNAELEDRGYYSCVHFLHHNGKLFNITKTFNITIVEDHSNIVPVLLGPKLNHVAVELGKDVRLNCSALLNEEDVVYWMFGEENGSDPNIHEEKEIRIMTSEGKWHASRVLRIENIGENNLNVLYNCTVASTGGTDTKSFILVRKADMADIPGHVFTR

T4: Human Interleukin-18 (mature form), wild type (human, UniProt Q14116 37-193)
T4 sequence: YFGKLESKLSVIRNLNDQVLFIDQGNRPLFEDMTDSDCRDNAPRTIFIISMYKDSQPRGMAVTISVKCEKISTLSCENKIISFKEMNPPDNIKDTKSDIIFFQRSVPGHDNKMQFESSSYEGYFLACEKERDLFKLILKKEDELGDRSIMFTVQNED

B1: SEQ ID NO: 19 (stabilized human DR-IL-18; SEQ ID NO: 89 plus C38S/C68D) (ligand)
chain: T4 sequence with C38S, M51K, K53S, Q56L, P57A, M60L, C68D, S105D, D110S, N111R
B2: SEQ ID NO: 88 (second generation human DR-IL-18 variant 6-20) (ligand)
chain: T4 sequence with M51K, K53G, Q56R, S105A, D110N, N111R
notes: Engineered variant
B3: Human IL-18BP (amino acids 31-194), biotinylated (receptor)
chain: TPVSQTTTAATASVRSTKDPCPSQPPVFPAAKQCPALEVTWPEVEVPLNGTLSLSCVACSRFPNFSILYWLGNGSFIEHLPGRLWEGSTSRERGSTGTQLCKALVLEQLTPALHSTNFSCVLVDPEQVVQRHVVLAQLWAGLRATLPPTQEALPSSHSSPQQQGGLNDIFEAQKIEWHEHHHHHH
modifications: biotin on the AviTag (BirA ligase) where used biotinylated
notes: Soluble decoy receptor; also called hIL-18BP; recombinant IL-18BP

Positions count from the first letter of the chain named. Names and notes keep the numbering of the source.

Assay [1] addresses T1, IL-18 receptor (IL-18Rα / IL-18Rβ …). As to the kind of experiment: cell-based or functional assay.
The target of assay [2] is T2, Human IL-18Rα ectodomain (amino acids …). As to the kind of experiment: SPR single-cycle kinetics, biotinylated hIL-18Rα on a streptavidin capture chip, IL-18 variant as analyte. As to the method: (§1) IL-18 receptor affinity. The affinities of human IL-18 and SEQ ID NO: 19 were determined for both human and cynomolgus monkey IL-18Rα and IL-18BP using surface plasmon resonance. Biotinylated receptor proteins were immobilized on a streptavidin capture chip and IL-18 or SEQ ID NO: 19 were applied as the free analyte. […] were used to determine binding. WT hIL-18 and SEQ ID NO: 19 had similar binding affinity for IL-18Rα in this assay (FIG. 37A).

Assay [3] concerns the target T3, Cynomolgus monkey IL-18Rα, biotinylated. As to the kind of experiment: SPR single-cycle kinetics, biotinylated cynomolgus IL-18Rα on a streptavidin capture chip, IL-18 variant as analyte. As to the method:
as §1

Assay [4] concerns the target B3. In words: on-yeast binding isotherm (flow cytometry).
The target in assay [5] is B3. As to the kind of experiment: on-yeast binding isotherm (flow cytometry), drawn summary table, column IL18BP (KD); IL18Rα column reads N.D.
Assay [6] addresses T4, Human Interleukin-18 (mature form), …. In words: cell-based or functional assay.
Assay [7] shares this target. As to the kind of experiment: competition on yeast (flow cytometry): hIL-18BP titrated against a fixed 100 nM biotinylated hIL-18Rα on yeast-displayed IL-18. On the procedure:
By contrast, IL-18BP effectively neutralizes the IL-18 E42A, K89A and E42A/K89A previously described (Kim et al., 2001, Proc. Natl. Acad. Sci., 98(6):3304-3309) (shown in chart on right) [E42 and K89 of Kim et al. are E6 and K53 of SEQ ID NO: 30, respectively]. Biotinylated IL-18Rα was kept at a fixed concentration of 100 nM for all samples.
Individual colonies of IL-18 yeast were grown overnight at 30° C. in SDCAA liquid media and induced in SGCAA liquid media for 1 day at 20° C. IL-18 display levels on yeast were verified by flow cytometry using an anti-cMyc tag antibody (anti-myc-PE; Cell Signaling Technologies). Receptor staining with biotinylated IL-18Rα (with or without IL-18R β) or biotinylated IL-18BP was performed in PBS supplemented with 0.5% BSA and 2 mM EDTA (PBE) on ice. All analysis was performed on a Sony SA3800 flow cytometer.

Turning to B1, in assay [1], the “EC50-#1 (M), HEK-Blue reporter” value came out at 1.24e-10 M and the “EC50-#2 (M), HEK-Blue reporter” value came to 7.9e-11 M. Moreover, the Kd in assay [2] was 18.8 nM. Also, in assay [3], the Kd was 10.9 nM.

In the case of B2, the Kd in assay [4] and in assay [5] was 340 nM each time.

Turning to B3, the “IC50 of recombinant IL-18BP in the HEK Blue IL-18 signaling assay (hIL-18 fixed at 5 nM)” value in assay [6] was 3 nM. Also, the “IC50 (read off the curve)” value in assay [7] is about 20 nM.
